Data published in US7163815B2, “Methods and compositions for NAD(P)(H) oxidases” (Georgia Tech Research Corporation, priority 2002, dated 2007).
Entries after “also recorded” stand apart in the source; their conditions may differ.

How the values were obtained:
[1] = test system: L. brevis (R)-ADH, G37D mutant; settings: in comparison with the wildtype for NADP^+; cited from earlier work
[2] = test system: NC(=O)C1=CN([C@@H]2O[C@H](COP(=O)(O)OP(=O)(O)OC[C@H]3O[C@@H](n4cnc5c(N)ncnc54)[C@H](O)[C@@H]3O)[C@@H](O)[C@H]2O)C=CC1; test: Kinetics of cofactor substrates, BNOX (change of absorbance at 340 nm); assay type: biochemical, Borrelia burgdorferi; settings: other: BNOX, pH 7.0, 30° C., HEPES buffer, air-saturated solution, 40% ammonium sulfate cut for BNOXK6
Procedure: (§1) The kinetic analysis was performed on ammonium sulfate fractions from both the sfnox and bnox strains in 50 mM HEPES buffer pH 7.0 at 30° C. The initial enzyme fractions were diluted in 25 mM HEPES pH 7.0 at 30° C.+25% glycerol+5 mM DTT to approximately −0.05 A340 nm/min and retained on ice during analysis. Conversion of NAD(P)H was followed by change of absorbance at 340 nm in a Jasco V-530 spectrophotometer. 3 mL methylacrylate disposable cuvettes were used for all experiments and all runs were performed in triplicate at 30° C. Reactions with NADH were started by adding 3 μL of enzyme preparation, 9 μL for NADPH, to the cuvette and mixing by inversion with parafilm three times. Varying concentrations of NAD(P)H substrate were made my preparing 100 mL of a 300 μM solution in a volumetric flask. Dilutions of this solution were then made to provide the differing substrate concentrations for the kinetic profile.
(§2) Investigation of kinetic parameters with NADH and NADPH cofactors as substrates was performed with the supernatant of the 45% ammonium sulfate cut (40% for BNOXK6) in air-saturated solution at 30° C. and pH 7.0 in 0.1 M HEPES buffer. […] Chi values and error bars reveal high accuracy with <10% error in most cases.

[3] = target: Borrelia burgdorferi NADH oxidase BNOX (BNOXK6; SEQ ID NOs 8, 10 and 12) (Borreliella burgdorferi, UniProt O51670, E220G/N174S); test: as above; assay type: biochemical; settings: pH 7.0, 30° C., comparable degree of purity to SFNOX
Procedure: as §1, §2

[4] = Nox activity assay (NADH oxidation at 340 nm); assay type: biochemical; settings: overexpressed in E. coli
Procedure: Nox activity assay: Cell-free extracts of the recombinant sfnox and bnox E. coli strains were prepared using ultrasonication described above in 0.1 M TEA pH 7.5+5 mM DTT or β-mercaptoethanol. Nox activities were assayed at 30° C. in a total volume of 1 mL at 340 nm using the following conditions: in 0.1 M TEA pH 7.5 a final concentration of 0.2 mM NADH was dissolved and 10 μl enzyme solution was added. Enzyme reaction was followed for 1 min, activity was calculated using an extinction coefficient ε of NADH of […].

[5] = Kinetics of cofactor substrates, NADPH; assay type: biochemical; settings: pH 7.0, 30° C.
Procedure: as §1, §2

[6] = Hydrogen peroxide assay (Amplex Red / resorufin fluorescence); assay type: biochemical; settings: upon conversion of 300 μM NADH
Procedure: With its detection limit of 100 nM, the test based on 9-acetyl-resorufin (“Amplex Red”) is much more sensitive than the other assays mentioned. Horseradish peroxidase (HRP)-catalyzed oxidation of 9-acetyl resorufin (“Amplex Red”) to fluorescent resorufin was the assay. Amplex Red reacts with H2O2 according to a strict 1:1 stoichiometry. The resorufin assay (λmax: 587 nm (emission), ε=54,000 L(mol-cm)^−1) with its extremely low detection limit of 100 nM resorufin product is much more sensitive than other assays, such as ABTS or o-dianisidine..
For the sensitive assay of putative hydrogen peroxide formation during the reaction of NADH oxidase the horseradish peroxidase-catalyzed oxidation of 9-acetyl resorufin was employed. The Amplex Red hydrogen peroxide assay kit (A-22188) from molecular probes was utilized for these assays. Following the protocols outlined in the kit instructions, a standard curve of H2O2 was prepared in the reaction buffer (50 mM sodium phosphate buffer pH 7.4) from the peroxide stock. The prepared concentrations were 20, 10, 5, and 2.5 μM H2O2 and 0 as a control. A working solution of 100 μM Amplex Red reagent and 0.2 U/ml horseradish peroxidase (HRP) was prepared in the reaction buffer as per kit instructions. As NADH and other reducing reagents are known to interfere with the amplex red assay, the NADH oxidase enzymes were allowed to react with the substrate immediately prior to the Amplex Red analysis. Reaction buffer from the kit was utilized in running enzyme test with 300 μM NADH as well as the controls without NADH. The enzyme conversions were performed by adding 3 μl of enzyme prep to 3 ml of reaction buffer with 300 μM NADH, mixing, and following the conversion until completion by absorbance at 340 nm. 50 μl of the final reaction mixture and standard curve solutions were added to each well in a 96 well fluorescence plate (costar, black, pp). Five replicates were made per sample and standard curve point. […] Fluorescence readings were performed in a BMG FLUOstar Galaxy micro plate reader with 544ex/590em filter settings.

Activity-pH profile = assay type: biochemical
Procedure: With the supernatant of the 45% ammonium sulfate cut, an activity—pH profile was measured for SFNOX (FIG. 4). The pH optimum of activity was found at pH 5.2. Below pH 5, activity decreased markedly and reached zero at pH 4.5. Rates at pH 4.5 to 5.2 are reported as net rates, with the chemical decomposition rate at low pH subtracted. […] The sharp activity decline between pH 5.2 and 6.0 coincides with the enzyme's pI, calculated to be pH 5.4.
The pH profile was performed on ammonium sulfate fractions from the sfnoxK2. 100 mM buffer solutions at 30° C. and 200 μM NADH were used for activity analysis as monitored by absorbance at 340 nm. All samples were tested in triplicate in 3 mL methylacrylate disposable cuvettes. The following buffers were utilized within the buffering range of 1 pH unit from their pKa: acetate, N-methylpiperazine, MES (2-[N-morpholino]ethanesulfonic acid hydrate), and bis-tris-propane. Sodium hydroxide or hydrochloric acid were used in preparation of the respective buffers.

NC(=O)c1ccc[n+]([C@@H]2O[C@H](COP(=O)([O-])OP(=O)(O)OC[C@H]3O[C@@H](n4cnc5c(N)ncnc54)[C@H](O)[C@@H]3O)[C@@H](O)[C@H]2O)c1 [NAD^+]
KM-value for NAD^+ [1]: very high

Borrelia burgdorferi NADH oxidase BNOX (BNOXK6; SEQ ID NOs 8, 10 and 12) (Borreliella burgdorferi B31; E220G/N174S)
Km [2]: 22.0 µM

NC(=O)C1=CN([C@@H]2O[C@H](COP(=O)(O)OP(=O)(O)OC[C@H]3O[C@@H](n4cnc5c(N)ncnc54)[C@H](O)[C@@H]3O)[C@@H](O)[C@H]2O)C=CC1 [NADH]
vmax [3]: 2.03 U/mg

B1: SFNOXK2: sequenced SFNOX clone with alanine to valine change at position 30 (A30V), SEQ ID 4 (protein)
chain: MKVIVVGCTHAGTFAVKQTIADHPDADVTVYEMNDNISFLSCGIALYLGKEIKNNDPRGLFYSSPEELSNLGANVQMRHQVTNVDPETKTIKVKDLITNEEKTEAYDKLIMTTGSKPTVPPIPGIDSSRVYLCKNYNDAKKLFEEAPKAKTITIIGSGYIGAELAEAYSNQNYNVNLIDGHERVLYKYFDKEFTDILAKDYEAHGVNLVLGSKVAAFEEVDDEIITKTLDGKEIKSDIAILCIGFRPNTELLKGKVAMLDNGAIITDEYMHSSNRDIFAAGDSAAVHYNPTNSNAYIPLATNAVRQGRLVGLNLTEDKVKDMGTQSSSGLKLYGRTYVSTGINTALAKANNLKVSEVIIADNYRPEFMLSTDEVLMSLVYDPKTRVILGGALSSMHDVSQSANVLSVCIQNKNTIDDLAMVDMLFQPQFDRPFNYLNILGQAAQAQADKAHK
activity of the overexpressed constructs [4]: comparable activity

B2: SFNOXK6: sequenced SFNOX clone with A30V and lysine to arginine at position 102 (K102R), SEQ ID NO 6 (protein)
chain: MKVIVVGCTHAGTFAVKQTIADHPDADVTVYEMNDNISFLSCGIALYLGKEIKNNDPRGLFYSSPEELSNLGANVQMRHQVTNVDPETKTIKVKDLITNEERTEAYDKLIMTTGSKPTVPPIPGIDSSRVYLCKNYNDAKKLFEEAPKAKTITIIGSGYIGAELAEAYSNQNYNVNLIDGHERVLYKYFDKEFTDILAKDYEAHGVNLVLGSKVAAFEEVDDEIITKTLDGKEIKSDIAILCIGFRPNTGLLKGKVAMLDNGAIITDEYMHSSNRDIFAAGDSAAVHYNPTNSNAYIPLATNAVRQGRLVGLNLTEDKVKDMGTQSSSGLKLYGRTYVSTGINTALAKANNLKVSEVIIADNYRPEFMLSTDEVLMSLVYDPKTRVILGGALSSMHDVSQSANVLSVCIQNKNTIDDLAMVDMLFQPQFDRPFNYLNILGQAAQAQADKAHK
activity of the overexpressed constructs [4]: comparable activity

B3: SFNOX: NAD(P)H oxidase isolated from Lactobacillus sanfranciscensis, SEQ ID NO 2; oxidizes NADH and NADPH, reduces oxygen to water (protein)
chain: MKVIVVGCTHAGTFAVKQTIADHPDADVTAYEMNDNISFLSCGIALYLGKEIKNNDPRGLFYSSPEELSNLGANVQMRHQVTNVDPETKTIKVKDLITNEEKTEAYDKLIMTTGSKPTVPPIPGIDSSRVYLCKNYNDAKKLFEEAPKAKTITIIGSGYIGAELAEAYSNQNYNVNLIDGHERVLYKYFDKEFTDILAKDYEAHGVNLVLGSKVAAFEEVDDEIITKTLDGKEIKSDIAILCIGFRPNTELLKGKVAMLDNGAIITDEYMHSSNRDIFAAGDSAAVHYNPTNSNAYIPLATNAVRQGRLVGLNLTEDKVKDMGTQSSSGLKLYGRTYVSTGINTALAKANNLKVSEVIIADNYRPEFMLSTDEVLMSLVYDPKTRVILGGALSSMHDVSQSANVLSVCIQNKNTIDDLAMVDMLFQPQFDRPFNYLNILGQAAQAQADKAHK
acceptance of NADPH as a substrate [5]: accept NADPH as a substrate with good reactivity | activity with NADPH relative to activity towards NADH ([5]; ratio of vmax): about 30% | H2O2 yield [6]: 0.2% | resorufin above background (equal concentration of H2O2 formed) [6]: 0.6 µM | pH of the minimum of the bimodal activity-pH curve (Activity-pH profile; 200 μM NADH, 30° C.): ~5.5 | pH optimum of activity (Activity-pH profile; 200 μM NADH, 30° C., supernatant of 45% ammonium sulfate cut): 5.2 | activity at pH 4.5 (Activity-pH profile; pH 4.5, net rate): zero | activity at pH 5.5 (Activity-pH profile; pH 5.5): instantaneously lose activity

B4: BNOX: NADH oxidase from Borrelia burgdorferi, SEQ ID NO 8; reacts with NADH only (protein)
chain: MMKIIIIGGTSAGTSAAAKANRLNKKLDITIYEKTNIVSFGTCGLPYFVGGFFDNPNTMISRTQEEFEKTGISVKTNHEVIKVDAKNNTIVIKNQKTGTIFNNTYDQLMIATGAKPIIPPINNINLENFHTLKNLEDGQKIKKLMDREEIKNIVIIGGGYIGIEMVEAAKNKRKNVRLIQLDKHILIDSFDEEIVTIMEEELTKKGVNLHTNEFVKSLIGEKKAEGVVTNKNTYQADAVILATGIKPDTEFLENQLKTTKNGAIIVNEYGETSIKNIFSAGDCATIYNIVSKKNEYIPLATTANKLGRIVGENLAGNHTAFKGTLGSASIKILSLEAARTGLTEKDAKKLQIKYKTIFVKDKNHTNYYPGQEDLYIKLIYEENTKIILGAQAIGKNGAVIRIHALSIAIYSKLTTKELGMMDFSYSPPFSRTWDILNIAGNAAK
acceptance of NADPH as a substrate [5]: does not accept NADPH as a substrate; also recorded: only accepts NADH | resorufin above background (equal concentration of H2O2 formed) [6]: could not detect any resorufin above background
